Assay results as given in PMC7360590, “Structural basis of SALM3 dimerization and synaptic adhesion complex formation with PTPσ” (Scientific Reports, 2020).
Blank lines part the entries; values can stand above or below the binder they belong to.

Key:
[1] = molecular target: T1, mouse SALM3 LRR-Ig-Fn (residues 17–510), wild type, displayed on HEK293T cells (mouse, UniProt Q80XU8 17-510); test: in-cell Western (cell-based binding assay); apparent; concentration series of soluble PTPσ-Fc (1–250 nM) on SALM3-transfected HEK293T cells in 96-well plates, EGB buffer with 1% BSA, overnight at 4 °C; detected with anti-human IgG IRDye 800CW; conditions: one partner purified
T1 construct: SALM3 (LRFN4), mouse, extracellular LRR-Ig-Fn, residues 17-510; also called WT SALM3; SALM3-pDisplay; source: HEK293T, transfected (pDisplay), on the cell surface; not shown: HA, N-terminal, kept; transmembrane domain (from the vector pDisplay), C-terminal, kept
T1 sequence (looked up): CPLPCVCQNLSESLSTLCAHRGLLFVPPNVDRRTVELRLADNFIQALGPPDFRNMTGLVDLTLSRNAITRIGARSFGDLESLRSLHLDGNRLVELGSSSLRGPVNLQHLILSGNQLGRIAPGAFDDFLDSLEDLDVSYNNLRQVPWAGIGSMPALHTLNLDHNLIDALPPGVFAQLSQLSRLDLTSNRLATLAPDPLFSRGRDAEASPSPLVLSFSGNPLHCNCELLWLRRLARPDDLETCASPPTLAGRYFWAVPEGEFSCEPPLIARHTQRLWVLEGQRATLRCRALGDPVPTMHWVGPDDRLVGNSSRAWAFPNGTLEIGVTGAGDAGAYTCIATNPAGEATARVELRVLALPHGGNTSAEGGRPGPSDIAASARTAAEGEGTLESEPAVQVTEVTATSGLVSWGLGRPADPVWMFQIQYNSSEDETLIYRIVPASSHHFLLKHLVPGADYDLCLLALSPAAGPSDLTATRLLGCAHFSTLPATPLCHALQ

[2] = molecular target: T2, SALM3 LRR-Ig (residues 17–367) (mouse, UniProt Q80XU8 17-367); test: SEC-SAXS; SALM3 LRR-Ig (60 µM) and PTPσ (80 µM) mixed, 1 h at 4 °C; Superdex 200 PC 3.2/30, 30 mM Tris HCl pH 7.5, 150 mM NaCl, 4 °C; rigid body (CORAL) and ab initio (DAMMIN) modelling; conditions: both partners purified
T2 construct: SALM3 (LRFN4), mouse, LRR and Ig domains, residues 17-367; also called SALM3 LRR-Ig construct; source: purified
T2 sequence (looked up): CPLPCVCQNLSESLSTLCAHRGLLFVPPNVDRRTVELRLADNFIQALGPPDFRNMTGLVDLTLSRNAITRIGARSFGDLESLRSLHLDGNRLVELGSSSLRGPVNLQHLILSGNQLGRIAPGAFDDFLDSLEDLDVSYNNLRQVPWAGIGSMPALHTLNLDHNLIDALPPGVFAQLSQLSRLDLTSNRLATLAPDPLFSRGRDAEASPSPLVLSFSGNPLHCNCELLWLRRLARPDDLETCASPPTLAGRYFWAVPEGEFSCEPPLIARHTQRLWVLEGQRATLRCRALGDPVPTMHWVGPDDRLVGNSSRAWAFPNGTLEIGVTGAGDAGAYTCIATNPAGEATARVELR

- Kd [1]: 22.3 ± 5 nM
B1: PTPσ-Fc fusion protein (Fc fusion)
chain: PRFIREPKDQIGVSGGVASFVCQATGDPKPRVTWNKKGKKVNSQRFETIDFDESSGAVLRIQPLRTPRDENVYECVAQNSVGEITIHAKLTVLREDQLPPGFPNIDMGPQLKVVERTRTATMLCAASGNPDPEITWFKDFLPVDPSASNGRIKQLRSGALQIESSEETDQGKYECVATNSAGVRYSSPANLYVRVRRVAPRFSILPMSHEIMPGGNVNITCVAVGSPMPYVKWMQGAEDLTPEDDMPVGRNVLELTDVKDSANYTCVAMSSLGVIEAVAQITVKSLPKAPGTPVV

- stoichiometry N [2]: 1 PTPσ per SALM3 (2:2 complex)
B2: mouse PTPσ Ig1-3-meB+ (residues 33–331) (domain or fragment, UniProt B0V2N1 33-331, looked up)
chain: PRFIREPKDQIGVSGGVASFVCQATGDPKPRVTWNKKGKKVNSQRFETIDFDESSGAVLRIQPLRTPRDENVYECVAQNSVGEITIHAKLTVLREDQLPPGFPNIDMGPQLKVVERTRTATMLCAASGNPDPEITWFKDFLPVDPSASNGRIKQLRSGALQIESSEETDQGKYECVATNSAGVRYSSPANLYVRVRRVAPRFSILPMSHEIMPGGNVNITCVAVGSPMPYVKWMQGAEDLTPEDDMPVGRNVLELTDVKDSANYTCVAMSSLGVIEAVAQITVKSLPKAPGTPVVTENT
notes: Receptor protein tyrosine phosphatase sigma (PTPσ), mouse, Ig1-Ig3 domains, splice form with mini-exon B (meB+), residues 33-331; The meB+ splice form is meant; also called PTPσ_(Ig1-Ig3); PTPσ Ig1-Ig3; source: purified
